In the supplement of paper PMC9170038:

Assays:
[1] = system: MS2 coat protein; experiment: apparent KD of MS2 coat protein, switch OFF state (with FMN for OFF switches, without FMN for ON switches); designed switch direction (-1 OFF switch, 1 ON switch): -1; higher = weaker reporter binding; conditions: FMN input: 0 or 200 uM; Eterna round: R93 (includes R88 designs)
In short: (§1)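 Designed RNA switches were made by on-chip transcription from Illumina sequencing clusters and then titrated with SNAP-549-labelled MS2 coat protein. Twofold steps ran from 0.7 or 1.5 nM to 3 µM, each lasting 0.8–1.5 h early and 10–20 min late, in 100 mM Tris-HCl pH 7.5, 80 mM KCl, 4 mM MgCl2, without or with constant ligand. Apparent KD is the per-design median of normalised cluster binding-curve fits.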

[2] = system: MS2 coat protein; experiment: apparent KD of MS2 coat protein, switch ON state; designed switch direction (-1 OFF switch, 1 ON switch): -1; higher = weaker reporter binding; conditions: FMN input: 0 or 200 uM; Eterna round: R93 (includes R88 designs)
In short: as §1

Row | Sequence | apparent KD of MS2 coat protein [1] [nM] | apparent KD of MS2 coat protein [2] [nM]
1 | UCCGGACAUGAGGAUCACCCAUGUGAGGAUAUAUAAAGUGGGACUGGAAACAGGCCCAAUAGAAGGCACAUGAC [Atatesin] | 21.9 | 22.6
2 | AAAAAGUGAGGAUAUACAUGAGGAUCACCCAUGUGAAGGGAAGAGAGAGAGAGAGAGAGUAGAAGGCACAAAAA [Default title] | 96.3 | 98.8
3 | AAAACACAUGAGGAUCACCCAUGUGAGGAUAUGCUAUGGAAAAUAAAAAUAAAACAUAGCAGAAGGCGCAGGAA [Denovo 20] | 22.9 | 29.8
4 | UUAGAACAUGAGGAUCACCCAUGUGAGGAUAUGCAAUACUAAAAAAAAGAUAAUUAUAGCAGAAGGCACGUAGU [JR_EXc001_Sub805] | 41.4 | 35.1
5 | GAGGUAUGAGGAUAUACAUAGAUACAGACACAUGUUCAAGUACAUGAGGAUCACCCAUGUAGAAGGCAUAUAUC [Mat - Same state - Mayanna Mod - D105] | 37.2 | 22
6 | AAGAAGUGAGGAUAUGCUGCUCGUCACUUGCGUGAUGAGUAGCAGAAGGCACAUGAGGAUCACCCAUGUGGGAA [Modifying Chris (69%) Late G segment, early G segment 3] | 110 | 89.1
7 | AAAAAACAUGAGGAUCACCCAUGUGAGGAUAUACAGAAUGGAAUAAAAUAACAAGAAAGUAGAAGGCACAAAAA [Ex 1 May 38] | 41.6 | 36.2
8 | CAGUACUGAGGAUAUACAUGAGGAUCACCCAUGUGUAAAAGCUAGGAAACUAGCAAAUGUAGAAGGCAGUACUG [Ex3: 816] | 36.5 | 13.8
9 | UAAAGACAUGAGGAUCACCCAUGUGAGGAUAUCGGAGGUGACGGAGCAUCGAGUUCGGCGAGAAGGCGCAGGAA [JR_Exc001_Sub409] | 53.4 | 67.2
10 | AGUUGGCGAGGAUAUACAUGAGGAUCACCCAUGUGAGAGAUAAAAGUGAGAAAGAAAAGUAGAAGGCGCUAACA [JL Lego Mod 20] | 262 | 45.6
11 | AAGAACCUAGGAUAUACUAAAGAAAUGAAAAGAAAUAAAGAACAUGAGGAUCACCCAUGUAGAAGGAGGAAGAA [Sewadjkare III] | 26.1 | 43.4
12 | CUCAAGUGAGGAUAUACAAAUAGUAAAUAAGUAUAACAAAAGUAGAAGGCACAUGAGGAUCACCCAUGUAAAUA [JR_Exc004_Sub302] | 26.3 | 29.4
13 | GAAAAGUGAGGAUAUGCGAAGGCGUCUGAUAGACGAGGCUAGCAGAAGGCACAUGAGGAUCACCCAUGUGGGAA [Mat - Exclusion 4 - Eli mod - D91] | 133 | 71.6
14 | UUUAUGUGAGGAUAUGUACAGAAAAAAAAGGGUGUAACUGUACAGAAGGCACAUGAGGAUCACCCAUGUGAAUA [EX4 381: S S Pseudoknot 6] | 216 | 113
15 | AAGCCACAUGAGGAUCACCCAUGUAAGGAUAUGAACGAAAUAAAAUAAAAAUAAAAGUUCAGAAGGUACAAAAA [Mat - Exclusion 1 - Eli mod - D23] | 21.9 | 20.2
16 | AAAAAACAUGAGGAUCACCCAUGUAAGGAUAUGCUCGGGCGAAAAAGCAAAAAAAAGAGCAGAAGGUACAAAAA [66%, Wbt, 42] | 38.7 | 20.5
17 | UAAAGGAUAGGAUAUACAUGAGGAUCACCCAUGUGAAUAAAUAAAAAAAUAAAAUAAAGUAGAAGGAUCAAUAA [LROPPY Exclusion 3 - v04_deltaG=3.9 break up As] | 34 | 32.2
18 | AGUCGGCGAGGAUAUACAUGAGGAUCACCCAUGUGAGAGCUAAAAGUGAGUCAGAAAAGUAGAAGGCGCUGACA [JL Lego Mod 6] | 94.1 | 96.5
19 | AAGAAGUCAGGAUAUGGUGCUCGUCACUUGCGUGAUGAGUACCAGAAGGGACAUGAGGAUCACCCAUGUAAAGA [Opal 21] | 60 | 47.1
20 | AAAAUACAUGAGGAUCACCCAUGUCAGGAUAUGCUAAAAAAAAAAUUAAAAAAAAAAUGUAGAAGGGACUAAAA [Exclusion Z2] | 40 | 53.7
21 | CACGUACAUGAGGAUCACCCAUGUUAGGAUAUGCCGGGUAAGAGAAAACUAAAAACCCGUAGAAGGGACGAAAC [Bilbo Confounded 13 - Jieux - Exclusion 1] | 28.6 | 23.3
22 | AAAAUACAUGAGGAUCACCCAUGUGAGGAUAUGCAAAACCCAUAUAAAAAGGGAAAAAGCAGAAGGUACAAAAA [wbt round 1 mod 14] | 27.7 | 18.6
23 | AAAAAAGGAGGAUAUACGAACAUGUCAAAAGACGUGAAGGGACAUGAGGAUCACCCAUGUAGAAGGCCUAAAAA [JL Part Open 34] | 60.8 | 35.4
